The values that follow come from PMC6978808, “In Situ Structure of an Intact Lipopolysaccharide-Bound Bacterial Surface Layer” (Cell, 2020).

“And” between values parts separate entries of the source, which are not always exact repeats. Equal entries are not always repeated.

Series [1] deals with the molecule itself. As to the kind of experiment: native MS; RsaANTD:PS sample after removal of Ca2+ on Zeba micro spin desalting columns.
Series [2] concerns the molecule itself. The series can be described thus: native MS; purified RsaANTD:PS complex with Ca2+; Q-Exactive UHMR; tandem MS (HCD 220 V) to assign the oligomers.
Series [3] deals with the molecule itself. The series can be described thus: cryo-EM structure; single-particle cryo-EM of the purified RsaANTD:PS complex, 3.7 Å; PS and Ca2+ bound.

B1: N-terminal domain of RsaA (RsaANTD) (domain or fragment, Caulobacter crescentus)
chain: AYTTAQLVTAYTNANLGKAPDAATTLTLDAYATQTQTGGLSDAAALTNTLKLVNSTTAVAIQTYQFFTGVAPSAAGLDFLVDSTTNTNDLNDAYYSKFAQENRFINFSINLATGAGAGATAFAAAYTGVSYAQTVATAYDKIIGNAVATAAGVDVAAAVAFLSRQANIDYLTAFVRANTPFTAAADIDLAVKAALIGTILNAATVSGIGGYATATAAMINDLSDGALSTDNAAGVNLFTAYPSSGVSGSEN
notes: S-layer protein RsaA of Caulobacter crescentus (1026 residues), N-terminal domain; the introduction defines RsaANTD as residues 1-249; residues 2-243 are built in the cryo-EM model; Cleavage by TEV protease after Gln would leave Glu-Asn-Leu-Tyr-Phe-Gln; also called inner domain of the S-layer; source: C. crescentus rsaATEV250 strain
For B1, the stoichiometry N (as a rule, a count of units in the complex or per binding partner) in series [1] is 4; in series [2], 2; in series [3] it was 21 and 20.
